Assay results from paper PMC9680129, “SARS-CoV-2 accessory protein 7b forms homotetramers in detergent” (Virology Journal, 2022).
Where “and” joins values, the source holds several entries; their conditions need not be identical. Equal entries are not always repeated.

Legend:
[1] = target: transmembrane domain of p7b (p7b-TM) (SARS-CoV); assay: AUC
[2] = target: transmembrane domain of p7b (p7b-TM) (SARS-CoV); assay: AUC; remark: listed apart in the source
[3] = target: transmembrane domain of p7b (p7b-TM) (SARS-CoV); assay: SDS-PAGE
AUC = target: the molecule itself; assay: AUC
SDS-PAGE = target: the molecule itself; assay: SDS-PAGE

In the case of “transmembrane domain of p7b (p7b-TM) (domain or fragment)”, the stoichiometry N [1] is reported as 2, the stoichiometry N [2] is reported as 4 and the stoichiometry N [3] is reported as 2.

With MIELSLIDFYLCFLAFLLFLVLIMLIIFWFSLELQDHNETCHA (natural protein, also called SARS-2 p7b; SARS-2 7b) [SARS-CoV-2 accessory protein 7b] the “stoichiometry N” value (AUC) was 4 and the “stoichiometry N” value (SDS-PAGE) was 2.

MNELTLIDFYLCFLAFLLFLVLIMLIIFWFSLEIQDLEEPCTKV (natural protein, also called SARS p7b; SARS 7b) [SARS-CoV accessory protein 7b] was tested, and the “stoichiometry N” value (AUC) was 4 and 2.
